In patent US20260242759A1, “GQ/11 Protein Peptidomimetics” (Vrije Universiteit Brussel, priority 2022, published 2026):
Positions of bridges follow the written chain, without caps; N, C: chain ends. Non-standard residues stand in square brackets, D forms with d. Residues, ends and D or L forms follow the SMILES beside them. Triazole bridges read from a SMILES are 1,4-linked. Lys(N3) = [N-]=[N+]=NCCCC[C@H](N)C(=O)O; Cha = N[C@@H](CC1CCCCC1)C(=O)O; Pra = C#CC[C@H](N)C(=O)O

Key:
MTT cytotoxicity assay = type: cell-based, human; conditions: human, HEK293 1C8 cells, 3 h 45 min, read-out: cell viability
Experimental: (§1) Cells were washed two times with PBS and incubated with 3-(4,5-dimethylthiazol-2-yl)-2,5-diphenyltetrazolium bromide (MTT) during 3 h, at 37° C. Afterwards, cells were washed once with PBS and then incubated for 10 min with DMSO. Plates were analysed with a Tecan Spark 10 M microplate reader.
(§2) An MTT assay was used to assess the cytotoxicity of the non-fluorescent Gq/11 peptidomimetics of Example 5. An MTT assay is a colorimetric test that evaluates the cell metabolic activity and reflects the cell viability.

[1] = test system: HEK293 cells overexpressing the ghrelin receptor; experiment: Fluorescence microscopy of cell permeability; type: cell-based, human; conditions: 5 μM, 3 h 45 min, 37° C.
Experimental: To visualise cell-penetration of the peptides, HEK293 1C8 cells were seeded in 12-well plates, covered with a coverslip, at 120,000 cells/well. After overnight incubation (37° C., 5% CO2), cells were washed with PBS and treated with the fluorescently labeled peptides for 2 h45. Next, BG-fluorescein was added to the mixture, for Snap tag labeling of the cell-surface GHSR. After incubation of 1 h the cells were washed four times with PBS. Cells were then fixed using 4% paraformaldehyde in PBS for 5 min and washed two times with PBS. Finally, Hoechst was diluted 1/1000 in PBS, added to the fixed cells during 10 min, and washed thrice with PBS.
The cells for permeabilization were first incubated with BG-fluorescein during 1 h, followed by four times washing with PBS. The cells were then fixed with 4% paraformaldehyde in PBS for 5 min washed twice. Afterwards, the cells were permeabilized with Triton 0.1% in PBS during 5 min and washed thrice. Finally, the cells were incubated for 3 h 45 with the peptide and washed three times before Hoechst was added for 10 min.
The SulfoCy5-labeled Gq/11 peptidomimetics of Example 5 were also analyzed by fluorescence microscopy to investigate their cell membrane permeability. HEK293 cells overexpressing the ghrelin receptor were seeded overnight on microscope slides. The cells were incubated with 5 μM of SulfoCy5-labeled Gq/11 peptidomimetics for 3 h 45 min at 37° C., followed by Hoechst staining for visualizing the nucleus. The cell membrane was visualized by staining the cell surface ghrelin receptors with fluorescein.

HEK293 1C8 cells = experiment: MTT cytotoxicity assay; type: cell-based, human; conditions: varying concentrations up to 40 μM, 3 h 45 min
Experimental: as §1, §2

[2] = biological target: purified bimane labeled ghrelin receptor (human, cysmin mutant, in lipidated nanodiscs) (human) (UniProt Q92847); experiment: cell-based or functional assay
[3] = biological target: T1, ghrelin receptor overexpressed on HEK293 cells (UniProt Q92847 1-366, limits assumed); experiment: cell-based or functional assay
[4] = biological target: T1, ghrelin receptor overexpressed on …; experiment: cell-based or functional assay; remark: listed apart in the source
[5] = biological target: T2, full-length human muscarinic 1 receptor with a FLAG tag at the N-terminus (human, UniProt P11229 1-460); experiment: cell-based or functional assay
T2 sequence: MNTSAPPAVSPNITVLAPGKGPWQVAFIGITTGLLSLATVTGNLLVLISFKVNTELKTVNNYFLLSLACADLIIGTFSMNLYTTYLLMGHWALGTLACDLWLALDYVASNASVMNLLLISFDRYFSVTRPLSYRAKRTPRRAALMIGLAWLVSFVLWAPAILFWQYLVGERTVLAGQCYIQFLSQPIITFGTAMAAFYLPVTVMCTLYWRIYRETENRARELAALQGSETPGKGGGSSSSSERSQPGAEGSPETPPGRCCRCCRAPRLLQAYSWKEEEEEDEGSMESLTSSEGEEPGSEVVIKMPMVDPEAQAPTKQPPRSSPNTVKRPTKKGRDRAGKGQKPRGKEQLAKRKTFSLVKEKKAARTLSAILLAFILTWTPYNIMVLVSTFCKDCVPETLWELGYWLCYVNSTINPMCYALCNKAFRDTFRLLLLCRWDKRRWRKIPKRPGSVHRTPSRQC

T1 sequence (Q92847 whole entry): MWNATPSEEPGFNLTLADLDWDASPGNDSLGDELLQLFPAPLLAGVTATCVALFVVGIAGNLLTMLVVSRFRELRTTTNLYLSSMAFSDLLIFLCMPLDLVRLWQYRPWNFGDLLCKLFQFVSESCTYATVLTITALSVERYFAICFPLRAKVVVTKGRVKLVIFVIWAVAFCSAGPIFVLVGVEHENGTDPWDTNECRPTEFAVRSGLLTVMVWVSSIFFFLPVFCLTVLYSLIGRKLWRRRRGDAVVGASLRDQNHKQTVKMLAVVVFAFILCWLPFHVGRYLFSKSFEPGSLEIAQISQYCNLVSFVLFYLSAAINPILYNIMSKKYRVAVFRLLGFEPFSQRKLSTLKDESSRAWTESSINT
purified bimane labeled ghrelin receptor (human, cysmin mutant, in lipidated nanodiscs) (human), sequence (Q92847 other isoform, or with tags, fused parts or gaps mutant): as the sequence (Q92847 whole entry) above, with C146S, C304S counted along it

CC[C@H](C)[C@H](NC(=O)[C@@H]1CCCCn2cc(nn2)C[C@H](NC(=O)[C@H](C)NC(=O)[C@H](Cc2ccccc2)NC(=O)[C@H](CCCNC(=N)N)NC(=O)[C@H](CCCNC(=N)N)NC(=O)[C@H](Cc2c[nH]c3ccccc23)NC(=O)[C@H](CCCNC(=N)N)NC(=O)[C@H](CCCNC(=N)N)NC(=O)[C@H](Cc2c[nH]c3ccccc23)NC(=O)[C@H](Cc2c[nH]c3ccccc23)NC(=O)[C@H](CCCNC(=N)N)NC(=O)[C@@H](N)CCCNC(=N)N)C(=O)N[C@@H](C(C)C)C(=O)N[C@@H](CCCCN)C(=O)N[C@@H](CC(=O)O)C(=O)N1)C(=O)N[C@@H](CC(C)C)C(=O)N[C@@H](CCC(N)=O)C(=O)N[C@@H](CC(C)C)C(=O)N[C@@H](CC(N)=O)C(=O)N[C@@H](CC(C)C)C(=O)N[C@@H](CCCCN)C(=O)N[C@@H](CCC(=O)O)C(=O)N[C@@H](Cc1ccc(O)cc1)C(=O)N[C@@H](CC(N)=O)C(=O)N[C@@H](CC(C)C)C(=O)N[C@H](C(=O)O)C(C)C [SBL-GQ-25] (H-RRWWRRWRRFA[Pra]VKD[Lys(N3)]ILQLNLKEYNLV-OH; triazole 12-16)
viability at 5 µM (MTT cytotoxicity assay): ~90% | viability at 10 µM (MTT cytotoxicity assay): ~85% | viability at 40 µM (MTT cytotoxicity assay): ~50%

H-C(SulfoCy5)-Ahx-RRRRRRRRFAc[PraVKDAzk]ILQLNLKEYNLV-OH [SBL-GQ-23]
SulfoCy5-labeled peptide observed inside cells [1]: entered cells

dynorphin [reference compound]
SulfoCy5-labeled peptide observed inside cells [1]: very little or no

CC[C@H](C)[C@H](NC(=O)[C@@H]1CCCCn2cc(nn2)C[C@H](NC(=O)[C@H](C)NC(=O)[C@H](Cc2ccccc2)NC(=O)[C@H](CCCCN)NC(=O)[C@H](CCCCN)NC(=O)[C@@H](N)CCCCN)C(=O)N[C@@H](C(C)C)C(=O)N[C@@H](CCCCN)C(=O)N[C@@H](CC(=O)O)C(=O)N1)C(=O)N[C@@H](CC(C)C)C(=O)N[C@@H](CCC(N)=O)C(=O)N[C@@H](CC(C)C)C(=O)N[C@@H](CC(N)=O)C(=O)N[C@@H](CC(C)C)C(=O)N[C@@H](CCCCN)C(=O)N[C@@H](CCC(=O)O)C(=O)N[C@@H](Cc1ccc(O)cc1)C(=O)N[C@@H](CC(N)=O)C(=O)N[C@@H](CC(C)C)C(=O)N[C@H](C(=O)O)C(C)C [SBL-GQ-13] (H-KKKFA[Pra]VKD[Lys(N3)]ILQLNLKEYNLV-OH; triazole 6-10)
cytotoxicity / viability (HEK293 1C8 cells): No cytotoxicity

H-C(SulfoCy5)-Ahx-RRWWRRWRRFAc[PraVKDAzk]ILQLNLKEYNLV-OH [SBL-GQ-24]
SulfoCy5-labeled peptide observed inside cells [1]: entered cells

H-C(SulfoCy5)-Ahx-RRRRFAc[PraVKDAzk]ILQLNLKEYNLV-OH [SBL-GQ-22]
SulfoCy5-labeled peptide observed inside cells [1]: very little or no

H-C(SulfoCy5)-Ahx-KKKFAc[PraVKDAzk]ILQLNLKEYNLV-OH [SBL-GQ-21]
SulfoCy5-labeled peptide observed inside cells [1]: very little or no

purified Gαqβ1γ2 heterotrimer
bimane maximum emission wavelength, with agonist JMV1843 [2]: 480 nm

CC[C@H](C)[C@H](NC(=O)[C@@H]1CCCCn2cc(nn2)C[C@H](NC(=O)[C@H](C)NC(=O)[C@H](Cc2ccccc2)NC(=O)[C@H](CCCNC(=N)N)NC(=O)[C@H](CCCNC(=N)N)NC(=O)[C@H](CCCNC(=N)N)NC(=O)[C@H](CCCNC(=N)N)NC(=O)[C@H](CCCNC(=N)N)NC(=O)[C@H](CCCNC(=N)N)NC(=O)[C@H](CCCNC(=N)N)NC(=O)[C@@H](N)CCCNC(=N)N)C(=O)N[C@@H](C(C)C)C(=O)N[C@@H](CCCCN)C(=O)N[C@@H](CC(=O)O)C(=O)N1)C(=O)N[C@@H](CC(C)C)C(=O)N[C@@H](CCC(N)=O)C(=O)N[C@@H](CC(C)C)C(=O)N[C@@H](CC(N)=O)C(=O)N[C@@H](CC(C)C)C(=O)N[C@@H](CCCCN)C(=O)N[C@@H](CCC(=O)O)C(=O)N[C@@H](Cc1ccc(O)cc1)C(=O)N[C@@H](CC(N)=O)C(=O)N[C@@H](CC(C)C)C(=O)N[C@H](C(=O)O)C(C)C [SBL-GQ-15] (H-RRRRRRRRFA[Pra]VKD[Lys(N3)]ILQLNLKEYNLV-OH; triazole 11-15)
viability at 5 µM (MTT cytotoxicity assay): ~90% | viability at 10 µM (MTT cytotoxicity assay): ~70% | viability at 40 µM (MTT cytotoxicity assay): ~50%

B1: SBL-GQ-15 (peptide)
peptide: H-RRRRRRRRFA[Pra]VKD[Lys(N3)]ILQLNLKEYNLV-OH
modifications: triazole 11-15
EC50 (M) of the MK0677 agonist, IP-One Gq assay, peptidomimetic at 10 µM, n = 1 [3]: 2.75e-10 M | EC50 (M) of the MK0677 agonist, IP-One Gq assay, peptidomimetic at 10 µM, n = 2 [3]: 1.07e-10 M | EC50 (M) of the MK0677 agonist, IP-One Gq assay, peptidomimetic at 10 µM, n = 3 [3]: 7.18e-11 M | EC50 (M) of the MK0677 agonist, IP-One Gq assay, SBL-GQ-15 5 µM, n = 1 [4]: 2.55e-10 M | EC50 (M) of the MK0677 agonist, IP-One Gq assay, SBL-GQ-15 5 µM, n = 2 [4]: 8.07e-11 M

B2: SBL-GQ-11 (peptide)
peptide: Ac-KKKFN[Pra]CKD[Lys(N3)]ILQMNLREYNLV-OH
modifications: triazole 6-10
IC50 (µM) of the agonist acetylcholine chloride for the M1 receptor in the presence of the peptidomimetic, RLA [5]: 57.7 µM | Shift (IC50 ratio without/with peptidomimetic), RLA [5]: 7 | bimane maximum emission wavelength, with agonist JMV1843 [2]: 478 nm

B3: SBL-GQ-05 (peptide)
peptide: Ac-KKKFA[Pra]VKD[Lys(N3)]ILQLNLKEYNLV-OH
modifications: triazole 6-10
IC50 (µM) of the agonist acetylcholine chloride for the M1 receptor in the presence of the peptidomimetic, RLA [5]: 330 µM | Shift (IC50 ratio without/with peptidomimetic), RLA [5]: 1 | EC50 (M) of the MK0677 agonist, IP-One Gq assay, peptidomimetic at 10 µM, n = 1 [3]: 9.99e-10 M | EC50 (M) of the MK0677 agonist, IP-One Gq assay, peptidomimetic at 10 µM, n = 2 [3]: 1.53e-10 M | EC50 (M) of the MK0677 agonist, IP-One Gq assay, peptidomimetic at 10 µM, n = 3 [3]: 1.1e-10 M | bimane emission as percent of the effect of the Gq protein, highest peptide concentrations [2]: 90% | bimane maximum emission wavelength, with agonist JMV1843 [2]: 478 nm

B4: SBL-GQ-04 (peptide)
peptide: Ac-KKKFAAVKDTILQLNLKEYN[Cha]V-OH
SMILES: CC[C@H](C)[C@H](NC(=O)[C@@H](NC(=O)[C@H](CC(=O)O)NC(=O)[C@H](CCCCN)NC(=O)[C@@H](NC(=O)[C@H](C)NC(=O)[C@H](C)NC(=O)[C@H](Cc1ccccc1)NC(=O)[C@H](CCCCN)NC(=O)[C@H](CCCCN)NC(=O)[C@H](CCCCN)NC(C)=O)C(C)C)[C@@H](C)O)C(=O)N[C@@H](CC(C)C)C(=O)N[C@@H](CCC(N)=O)C(=O)N[C@@H](CC(C)C)C(=O)N[C@@H](CC(N)=O)C(=O)N[C@@H](CC(C)C)C(=O)N[C@@H](CCCCN)C(=O)N[C@@H](CCC(=O)O)C(=O)N[C@@H](Cc1ccc(O)cc1)C(=O)N[C@@H](CC(N)=O)C(=O)N[C@@H](CC1CCCCC1)C(=O)N[C@H](C(=O)O)C(C)C
IC50 (µM) of the agonist acetylcholine chloride for the M1 receptor in the presence of the peptidomimetic, RLA [5]: 213 µM | Shift (IC50 ratio without/with peptidomimetic), RLA [5]: 4 | EC50 (M) of the MK0677 agonist, IP-One Gq assay, peptidomimetic at 10 µM, n = 1 [3]: 4.42e-10 M | EC50 (M) of the MK0677 agonist, IP-One Gq assay, peptidomimetic at 10 µM, n = 2 [3]: 9.46e-11 M | EC50 (M) of the MK0677 agonist, IP-One Gq assay, peptidomimetic at 10 µM, n = 3 [3]: 9.87e-11 M | EC50 (M) of the MK0677 agonist, IP-One Gq assay, SBL-GQ-04 5 µM, n = 1 [4]: 3.18e-10 M | EC50 (M) of the MK0677 agonist, IP-One Gq assay, SBL-GQ-04 5 µM, n = 2 [4]: 1.41e-10 M

B5: SBL-GQ-12 (peptide)
peptide: Ac-KKKFN[Pra]CKD[Lys(N3)]ILQMNLREYN[Cha]V-OH
modifications: triazole 6-10
IC50 (µM) of the agonist acetylcholine chloride for the M1 receptor in the presence of the peptidomimetic, RLA [5]: 13.7 µM | Shift (IC50 ratio without/with peptidomimetic), RLA [5]: 34 | bimane maximum emission wavelength, with agonist JMV1843 [2]: 478 nm

B6: SBL-GQ-25 (peptide)
peptide: H-RRWWRRWRRFA[Pra]VKD[Lys(N3)]ILQLNLKEYNLV-OH
modifications: triazole 12-16
EC50 (M) of the MK0677 agonist, IP-One Gq assay, SBL-GQ-25 5 µM, n = 1 [4]: 7.82e-10 M | EC50 (M) of the MK0677 agonist, IP-One Gq assay, SBL-GQ-25 5 µM, n = 2 [4]: 1.7e-10 M | EC50 (M) of the MK0677 agonist, IP-One Gq assay, SBL-GQ-25 10 µM, n = 1 [4]: 1.54e-09 M | EC50 (M) of the MK0677 agonist, IP-One Gq assay, SBL-GQ-25 10 µM, n = 2 [4]: 4.65e-10 M

B7: SBL-GQ-06 (peptide)
peptide: Ac-KKKFA[Pra]VKD[Lys(N3)]ILQLNLKEYN[Cha]V-OH
modifications: triazole 6-10
IC50 (µM) of the agonist acetylcholine chloride for the M1 receptor in the presence of the peptidomimetic, RLA [5]: 54.4 µM | Shift (IC50 ratio without/with peptidomimetic), RLA [5]: 8 | bimane maximum emission wavelength, with agonist JMV1843 [2]: 478 nm
